Measurements: publication PMC3355305, “Localized Dimerization and Nucleoid Binding Drive Gradient Formation by the Bacterial Cell Division Inhibitor MipZ” (Molecular Cell, 2012)

System: C. crescentus cells
Test: FRAP analysis of MipZ-YFP mobility
Type: cell-based, Caulobacter crescentus
Excerpt: Due to their association with chromosomal DNA, MipZ dimers should display slower diffusion rates than monomers. To test this hypothesis, we monitored the mobility of wild-type and mutant MipZ-YFP fusions using fluorescence recovery after photobleaching (FRAP) analysis. […] Concurrent with the reappearance of fluorescence at the bleached pole, the intensity of the unbleached focus decreased, while the total integrated fluorescence remained constant within the cell.
Figure 5 FRAP Analysis of MipZ Diffusion (A and C) FRAP experiments on cells producing a wild-type MipZ-YFP fusion (A) or a MipZ-D42A fusion (C). Cells of strain MT177 (WT) or MT197 (D42A) were shifted from M2GN to M2G medium containing 0.3% xylose and cultivated for another 4 hr to deplete wild-type MipZ and synthesize the indicated fusion protein instead. Single polar MipZ-YFP foci were photo-bleached (white circles), and recovery was followed by fluorescence microscopy (scale bars represent 2 μm). (B, D, and E) Quantification of the recovery rate in cells producing YFP fusions to wild-type MipZ (MT177) (B), MipZ-D42A (MT197) (D), and MipZ-G14V (MT178) (E). FRAP experiments were performed as described in (A). The graphs show the average relative integrated intensities of the bleached region, an unbleached region of equal size at the opposite pole, and the remaining area of the cell plotted as a function of time. The recovery half-times (t1/2), as determined by fitting of the data to single-exponential functions (red lines), are given on top of the graphs. […] (F) Quantification of the recovery rate of MipZ-YFP in cells depleted of ParB. Strain MT148 was grown in M2G medium for 15 hr and analyzed as described in (B), (D), and (E). […] The recovery half-time measured before depletion of ParB was 11.8 s (±1.2 s; n = 34) (data not shown). See also Figure S6. […] It is uncertain whether they count as substance results. / All panels: the lowered sign after t is very small and is read as ½.
Figure S6. Fluorescence-recovery-after-photobleaching analysis of MipZ mobility, Related to Figure 5.
(A) Representative images of FRAP experiments on cells producing mutant MipZ-YFP fusions. Cells of strains DK2 (K13A), MT178 (G14V) and MT179 (K18Q), which express wild-type mipZ under the control of the ammonium-repressible PnrtX promoter and the indicated mipZ-eyfp allele under the control of the xylose-inducible Pxyl promoter, were shifted from M2GN to M2G medium containing 0.3% xylose and cultivated for another 4 h to deplete wild-type MipZ and synthesize the fusion protein instead. Single polar regions were photo-bleached, and recovery was followed by fluorescence microscopy (bars: 2 µm). The bleached regions are highlighted by circles.
(B) Cells of strain MT177 (ΔmipZ PnrtX::mipZ Pxyl::mipZ-eyfp) were grown as described in (A). Chloramphenicol (20 µg/ml) was added to the growing culture 25 min prior to harvest as well as to the agarose pads used for the FRAP experiments. Fitting of the data to a single exponential equation yielded a recovery half-time of 12.4 s (± 0.5 s).
(C) Cells of strain MT97 (mipZ-eyfp) were grown in M2G medium and subjected to FRAP analysis. The fitted curve corresponds to a recovery half-time of 12.0 s (± 1.2 s).
(D and E) Cells of strains (D) DK2 (ΔmipZ PnrtX::mipZ Pxyl::mipZK13A-eyfp) and (E) MT179 (ΔmipZ PnrtX::mipZ Pxyl::mipZK18Q-eyfp) were grown as described in (A) and subjected to FRAP analysis. […]

B1: MipZ: P loop ATPase and cell division inhibitor of Caulobacter crescentus; hexahistidine-tagged in vitro, YFP fusion in FRAP (protein)
chain: MAETRVIVVGNEKGGAGKSTIAVHLVTALLYGGAKVAVIDLDLRQRTSARFFENRRAWLDNKKIELPEPLALNLSDNDVALAERPEEEQVAGFEAAFARAMAECDFILIDTPGGDSAITRMAHGRADLVVTPMNDSFVDFDMLGTVDPVTLELTKPSLYSLTVWEGRKQRALSGQRQAMDWVVLRNRLATTEARNRKRLEDRLNALAKRVGFRIGPGLRDRVIYRELFPFGLTIADLSPQVRPVPVSLQHLAARQELRALMHSLGLSAYSGETMLAAQ
modifications: left off: His6, end not stated, state not stated
notes: hexahistidine-tagged in vitro, YFP fusion in FRAP
MipZ-YFP in cells depleted of ParB (strain MT148)
  recovery half-time (t1/2): 3.2 s
YFP fusion, xylose-induced, cells depleted of wild-type MipZ, polar region bleached
  recovery half-time (t1/2): 10.7 s
Strain MT97 (mipZ-eyfp), M2G medium, not inducible promoter
  recovery half-time: 12.0 s
Strain MT148 before depletion of ParB
  recovery half-time: 11.8 s
Strain MT177, chloramphenicol 20 µg/ml
  recovery half-time: 12.4 s
